According to paper PMC2807882, “Conservation of DNA-binding specificity and oligomerisation properties within the p53 family” (BMC Genomics, 2009):

What was measured:
[1] = molecular target: the molecule itself; experiment: AUC; sedimentation velocity with fluorescence detection, FlAsH-labelled protein at 5-500 nM (monomer); 150 mM NaCl, 25 mM phosphate pH 7.2, 10% glycerol, BSA 0.2 mg/mL, 1 mM β-mercaptoethanol, 10°C; dimer to monomers; Kd expressed in concentration of monomer
[2] = molecular target: the molecule itself; experiment: AUC; sedimentation velocity with fluorescence detection, FlAsH-labelled protein at 5-500 nM (monomer); 150 mM NaCl, 25 mM phosphate pH 7.2, 10% glycerol, BSA 0.2 mg/mL, 1 mM β-mercaptoethanol, 10°C; tetramer to dimers; Kd expressed in concentration of monomer
[3] = molecular target: the molecule itself; experiment: AUC; sedimentation velocity with fluorescence detection, FlAsH-labelled protein at 5-500 nM; 150 mM NaCl, 25 mM phosphate pH 7.2, 10% glycerol, BSA 0.2 mg/mL, 1 mM beta-mercaptoethanol, 10°C; tetramer to dimers; Kd expressed in concentration of monomer
[4] = molecular target: the molecule itself; experiment: AUC; sedimentation velocity with fluorescence detection, FlAsH-labelled protein at 5-500 nM (also at 60 k rpm); 150 mM NaCl, 25 mM phosphate pH 7.2, 10% glycerol, BSA 0.2 mg/mL, 1 mM beta-mercaptoethanol, 10°C; dimer to monomers; Kd expressed in concentration of monomer

Protein	Kd [2] [nM]	stoichiometry N [3]	other results
Human p63 isoform ΔNp63β, with C-terminal FlAsH tag, FlAsH-labelled (natural protein, UniProt Q9H3D4-4 1-461, looked up, FlAsH (from FlAsH-EDT2, an arsenic derivative of fluorescein) on the C-terminal CCPGCC tetra-cysteine tag, the whole isoform is surmised; also called ΔNp63β-FlAsH; not shown: 6xHis, N-terminal, cleaved; lipoyl domain, N-terminal, cleaved; FlAsH-tag CCPGCC, C-terminal, kept) MLYLENNAQTQFSEPQYTNLGLLNSMDQQIQNGSSSTSPYNTDHAQNSVTAPSPYAQPSSTFDALSPSPAIPSNTDYPGPHSFDVSFQQSSTAKSATWTYSTELKKLYCQIAKTCPIQIKVMTPPPQGAVIRAMPVYKKAEHVTEVVKRCPNHELSREFNEGQIAPPSHLIRVEGNSHAQYVEDPITGRQSVLVPYEPPQVGTEFTTVLYNFMCNSSCVGGMNRRPILIIVTLETRDGQVLGRRCFEARICACPGRDRKADEDSIRKQQVSDSTKNGDGTKRPFRQNTHGIQMTSIKKRRSPDDELLYLPVRGRETYEMLLKIKESLELMQYLPQHTIETYRQQQQQQHQHLLQKQTSIQSPSSYGNSSPPLNKMNSMNKLPSVSQLINPQQRNALTPTTIPDGMGANIPMMGTHMPMAGDMNGLSPTQALPPPLSMPSTSHCTPPPPYPTDCSIVRIWQV	12.2		Kd [1]: 9.3 nM
human ΔNp63β with C-terminal FlAsH tag, labelled with FlAsH (natural protein, UniProt Q9H3D4-4 1-461, looked up, FlAsH (from FlAsH-EDT2, Lumio Green) on the C-terminal CCPGCC tetra-cysteine tag, also called human p63; not shown: FlAsH tag CCPGCC, C-terminal, kept; 6xHis, N-terminal, cleaved; lipoyl domain, N-terminal, cleaved) MLYLENNAQTQFSEPQYTNLGLLNSMDQQIQNGSSSTSPYNTDHAQNSVTAPSPYAQPSSTFDALSPSPAIPSNTDYPGPHSFDVSFQQSSTAKSATWTYSTELKKLYCQIAKTCPIQIKVMTPPPQGAVIRAMPVYKKAEHVTEVVKRCPNHELSREFNEGQIAPPSHLIRVEGNSHAQYVEDPITGRQSVLVPYEPPQVGTEFTTVLYNFMCNSSCVGGMNRRPILIIVTLETRDGQVLGRRCFEARICACPGRDRKADEDSIRKQQVSDSTKNGDGTKRPFRQNTHGIQMTSIKKRRSPDDELLYLPVRGRETYEMLLKIKESLELMQYLPQHTIETYRQQQQQQHQHLLQKQTSIQSPSSYGNSSPPLNKMNSMNKLPSVSQLINPQQRNALTPTTIPDGMGANIPMMGTHMPMAGDMNGLSPTQALPPPLSMPSTSHCTPPPPYPTDCSIVRIWQV		4	fold weaker self-association (dimer-tetramer equilibrium) than Dmp53, Drp53 and ΔNp73β [3]: ~5 fold; fold weaker primary dimer (monomer-dimer equilibrium) than human p53 [4]: 9 fold
Drosophila melanogaster p53, full length, with C-terminal FlAsH tag, FlAsH-labelled (natural protein, UniProt Q9N6D8 1-385, looked up, FlAsH (from FlAsH-EDT2, an arsenic derivative of fluorescein) on the C-terminal CCPGCC tetra-cysteine tag, p53 of Drosophila melanogaster, full-length protein, amplified from a cDNA library; also called Dmp53; Dmp53-FlAsH; not shown: 6xHis, N-terminal, cleaved; lipoyl domain, N-terminal, cleaved; FlAsH-tag CCPGCC, C-terminal, kept) MYISQPMSWHKESTDSEDDSTEVDIKEDIPKTVEVSGSELTTEPMAFLQGLNSGNLMQFSQQSVLREMMLQDIQIQANTLPKLENHNIGGYCFSMVLDEPPKSLWMYSIPLNKLYIRMNKAFNVDVQFKSKMPIQPLNLRVFLCFSNDVSAPVVRCQNHLSVEPLTANNAKMRESLLRSENPNSVYCGNAQGKGISERFSVVVPLNMSRSVTRSGLTRQTLAFKFVCQNSCIGRKETSLVFCLEKACGDIVGQHVIHVKICTCPKRDRIQDERQLNSKKRKSVPEAAEEDEPSKVRRCIAIKTEDTESNDSRDCDDSAAEWNVSRTPDGDYRLAITCPNKEWLLQSIEGMIKEAAAEVLRNPNQENLRRHANKLLSLKKRAYELP	1.7		
Dmp53 (Drosophila melanogaster p53) with C-terminal FlAsH tag, labelled with FlAsH (natural protein, fruit fly (Drosophila melanogaster), UniProt Q9N6D8 1-385, looked up, FlAsH (from FlAsH-EDT2, Lumio Green) on the C-terminal CCPGCC tetra-cysteine tag, amplified from a cDNA library (Simon Bullock); also called fruit fly p53; not shown: FlAsH tag CCPGCC, C-terminal, kept; 6xHis, N-terminal, cleaved; lipoyl domain, N-terminal, cleaved) MYISQPMSWHKESTDSEDDSTEVDIKEDIPKTVEVSGSELTTEPMAFLQGLNSGNLMQFSQQSVLREMMLQDIQIQANTLPKLENHNIGGYCFSMVLDEPPKSLWMYSIPLNKLYIRMNKAFNVDVQFKSKMPIQPLNLRVFLCFSNDVSAPVVRCQNHLSVEPLTANNAKMRESLLRSENPNSVYCGNAQGKGISERFSVVVPLNMSRSVTRSGLTRQTLAFKFVCQNSCIGRKETSLVFCLEKACGDIVGQHVIHVKICTCPKRDRIQDERQLNSKKRKSVPEAAEEDEPSKVRRCIAIKTEDTESNDSRDCDDSAAEWNVSRTPDGDYRLAITCPNKEWLLQSIEGMIKEAAAEVLRNPNQENLRRHANKLLSLKKRAYELP		4	
Xenopus laevis p53, full length, with C-terminal FlAsH tag, FlAsH-labelled (natural protein, UniProt P07193 1-363, looked up, FlAsH (from FlAsH-EDT2, an arsenic derivative of fluorescein) on the C-terminal CCPGCC tetra-cysteine tag, p53 of frog (Xenopus laevis), full-length protein, from a Mammalian Gene Collection clone; also called Xlp53; Xlp53-FlAsH; not shown: 6xHis, N-terminal, cleaved; lipoyl domain, N-terminal, cleaved; FlAsH-tag CCPGCC, C-terminal, kept) MEPSSETGMDPPLSQETFEDLWSLLPDPLQTVTCRLDNLSEFPDYPLAADMTVLQEGLMGNAVPTVTSCAVPSTDDYAGKYGLQLDFQQNGTAKSVTCTYSPELNKLFCQLAKTCPLLVRVESPPPRGSILRATAVYKKSEHVAEVVKRCPHHERSVEPGEDAAPPSHLMRVEGNLQAYYMEDVNSGRHSVCVPYEGPQVGTECTTVLYNYMCNSSCMGGMNRRPILTIITLETPQGLLLGRRCFEVRVCACPGRDRRTEEDNYTKKRGLKPSGKRELAHPPSSEPPLPKKRLVVVDDDEEIFTLRIKGRSRYEMIKKLNDALELQESLDQQKVTIKCRKCRDEIKPKKGKKLLVKDEQPDSE	27.6		
Xlp53 (Xenopus laevis p53) with C-terminal FlAsH tag, labelled with FlAsH (natural protein, frog (Xenopus laevis), UniProt P07193 1-363, looked up, FlAsH (from FlAsH-EDT2, Lumio Green) on the C-terminal CCPGCC tetra-cysteine tag, also called frog p53; not shown: FlAsH tag CCPGCC, C-terminal, kept; 6xHis, N-terminal, cleaved; lipoyl domain, N-terminal, cleaved) MEPSSETGMDPPLSQETFEDLWSLLPDPLQTVTCRLDNLSEFPDYPLAADMTVLQEGLMGNAVPTVTSCAVPSTDDYAGKYGLQLDFQQNGTAKSVTCTYSPELNKLFCQLAKTCPLLVRVESPPPRGSILRATAVYKKSEHVAEVVKRCPHHERSVEPGEDAAPPSHLMRVEGNLQAYYMEDVNSGRHSVCVPYEGPQVGTECTTVLYNYMCNSSCMGGMNRRPILTIITLETPQGLLLGRRCFEVRVCACPGRDRRTEEDNYTKKRGLKPSGKRELAHPPSSEPPLPKKRLVVVDDDEEIFTLRIKGRSRYEMIKKLNDALELQESLDQQKVTIKCRKCRDEIKPKKGKKLLVKDEQPDSE		4	fold weaker self-association (dimer-tetramer equilibrium) than Dmp53, Drp53 and ΔNp73β [3]: ~10 fold
Human p73 isoform ΔNp73β, with C-terminal FlAsH tag, FlAsH-labelled (natural protein, UniProt O15350-9 1-450, looked up, FlAsH (from FlAsH-EDT2, an arsenic derivative of fluorescein) on the C-terminal CCPGCC tetra-cysteine tag, the whole isoform is surmised; also called ΔNp73β-FlAsH; not shown: 6xHis, N-terminal, cleaved; lipoyl domain, N-terminal, cleaved; FlAsH-tag CCPGCC, C-terminal, kept) MLYVGDPARHLATAQFNLLSSTMDQMSSRAASASPYTPEHAASVPTHSPYAQPSSTFDTMSPAPVIPSNTDYPGPHHFEVTFQQSSTAKSATWTYSPLLKKLYCQIAKTCPIQIKVSTPPPPGTAIRAMPVYKKAEHVTDVVKRCPNHELGRDFNEGQSAPASHLIRVEGNNLSQYVDDPVTGRQSVVVPYEPPQVGTEFTTILYNFMCNSSCVGGMNRRPILIIITLEMRDGQVLGRRSFEGRICACPGRDRKADEDHYREQQALNESSAKNGAASKRAFKQSPPAVPALGAGVKKRRHGDEDTYYLQVRGRENFEILMKLKESLELMELVPQPLVDSYRQQQQLLQRPSHLQPPSYGPVLSPMNKVHGGMNKLPSVNQLVGQPPPHSSAATPNLGPVGPGMLNNHGHAVPANGEMSSSHSAQSMVSGSHCTPPPPYHADPSLVRTWGP	2.4		Kd [1]: 5.7 nM
human ΔNp73β with C-terminal FlAsH tag, labelled with FlAsH (natural protein, UniProt O15350-9 1-450, looked up, FlAsH (from FlAsH-EDT2, Lumio Green) on the C-terminal CCPGCC tetra-cysteine tag, also called human p73; not shown: FlAsH tag CCPGCC, C-terminal, kept; 6xHis, N-terminal, cleaved; lipoyl domain, N-terminal, cleaved) MLYVGDPARHLATAQFNLLSSTMDQMSSRAASASPYTPEHAASVPTHSPYAQPSSTFDTMSPAPVIPSNTDYPGPHHFEVTFQQSSTAKSATWTYSPLLKKLYCQIAKTCPIQIKVSTPPPPGTAIRAMPVYKKAEHVTDVVKRCPNHELGRDFNEGQSAPASHLIRVEGNNLSQYVDDPVTGRQSVVVPYEPPQVGTEFTTILYNFMCNSSCVGGMNRRPILIIITLEMRDGQVLGRRSFEGRICACPGRDRKADEDHYREQQALNESSAKNGAASKRAFKQSPPAVPALGAGVKKRRHGDEDTYYLQVRGRENFEILMKLKESLELMELVPQPLVDSYRQQQQLLQRPSHLQPPSYGPVLSPMNKVHGGMNKLPSVNQLVGQPPPHSSAATPNLGPVGPGMLNNHGHAVPANGEMSSSHSAQSMVSGSHCTPPPPYHADPSLVRTWGP		4	fold weaker primary dimer (monomer-dimer equilibrium) than human p53 [4]: 6 fold
Danio rerio p53, full length, with C-terminal FlAsH tag, FlAsH-labelled (natural protein, UniProt P79734 1-373, looked up, FlAsH (from FlAsH-EDT2, an arsenic derivative of fluorescein) on the C-terminal CCPGCC tetra-cysteine tag, p53 of zebrafish (Danio rerio), full-length protein, from a Mammalian Gene Collection clone; also called Drp53; Drp53-FlAsH; not shown: 6xHis, N-terminal, cleaved; lipoyl domain, N-terminal, cleaved; FlAsH-tag CCPGCC, C-terminal, kept) MAQNDSQEFAELWEKNLIIQPPGGGSCWDIINDEEYLPGSFDPNFFENVLEEQPQPSTLPPTSTVPETSDYPGDHGFRLRFPQSGTAKSVTCTYSPDLNKLFCQLAKTCPVQMVVDVAPPQGSVVRATAIYKKSEHVAEVVRRCPHHERTPDGDNLAPAGHLIRVEGNQRANYREDNITLRHSVFVPYEAPQLGAEWTTVLLNYMCNSSCMGGMNRRPILTIITLETQEGQLLGRRSFEVRVCACPGRDRKTEESNFKKDQETKTMAKTTTGTKRSLVKESSSATLRPEGSKKAKGSSSDEEIFTLQVRGRERYEILKKLNDSLELSDVVPASDAEKYRQKFMTKNKKENRESSEPKQGKKLMVKDEGRSDSD	3.6		
Drp53 (zebrafish p53) with C-terminal FlAsH tag, labelled with FlAsH (natural protein, zebrafish (Danio rerio), UniProt P79734 1-373, looked up, FlAsH (from FlAsH-EDT2, Lumio Green) on the C-terminal CCPGCC tetra-cysteine tag, not shown: FlAsH tag CCPGCC, C-terminal, kept; 6xHis, N-terminal, cleaved; lipoyl domain, N-terminal, cleaved) MAQNDSQEFAELWEKNLIIQPPGGGSCWDIINDEEYLPGSFDPNFFENVLEEQPQPSTLPPTSTVPETSDYPGDHGFRLRFPQSGTAKSVTCTYSPDLNKLFCQLAKTCPVQMVVDVAPPQGSVVRATAIYKKSEHVAEVVRRCPHHERTPDGDNLAPAGHLIRVEGNQRANYREDNITLRHSVFVPYEAPQLGAEWTTVLLNYMCNSSCMGGMNRRPILTIITLETQEGQLLGRRSFEVRVCACPGRDRKTEESNFKKDQETKTMAKTTTGTKRSLVKESSSATLRPEGSKKAKGSSSDEEIFTLQVRGRERYEILKKLNDSLELSDVVPASDAEKYRQKFMTKNKKENRESSEPKQGKKLMVKDEGRSDSD		4	
